Earlier results on one substance are cited in EP3351262A1, “CURAGLUTIDE FOR IN TREATMENT OF PREDIABETES, DIABETES, OBESITY AND METABOLIC DISEASES ASSOCIATED THERETO” (Istanbul Universitesi Rektorlugu, priority 2016, dated 2018).

The conditions of this series: in vivo; cited from earlier work.

Regarding “GLP-1: glucagon like peptide-1, a neuroendocrine (intestinal) hormone with incretin effect”, the half-life in plasma was 12 to 30 min.
